Measurements reported in patent US20230287125A1 (LEPU BIOPHARMA, published 2023).
Where a chain is given by its changes, count along the chain named. Blank lines part the entries; values can stand above or below the binder they belong to.

Columns and labels:
[1] = biological target: T1, human PD-L1-his tag protein (human, UniProt Q9NZQ7 19-238); assay: SPR (Biacore), affinity ranking, PDL1-His
T1 construct: also called human PD-L1-His protein; recombinant PD-L1 protein; not shown: his tag

[2] = biological target: T2, human PD-L1 over-expressed on CHOK1 cells (human, UniProt Q9NZQ7 19-290); assay: flow cytometry (MFI) on PDL1-CHOK1 cells; lower right panel
T2 construct: whole, on cells; also called PDL1-CHOK1 cells
T2 sequence (Q9NZQ7 19-290): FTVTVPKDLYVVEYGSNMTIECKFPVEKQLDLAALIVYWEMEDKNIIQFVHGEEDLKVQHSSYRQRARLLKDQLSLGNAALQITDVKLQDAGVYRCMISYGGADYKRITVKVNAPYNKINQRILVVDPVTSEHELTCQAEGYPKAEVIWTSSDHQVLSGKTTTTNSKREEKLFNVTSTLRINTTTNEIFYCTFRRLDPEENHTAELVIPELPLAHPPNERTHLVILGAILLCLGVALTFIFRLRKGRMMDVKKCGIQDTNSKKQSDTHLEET
Method: (§1) To evaluate the antigen binding property, the humanized antibodies were analyzed for their binding to PD-L1 overexpressed on mammalian cells by FACS. Briefly, PDL1-CHOK1 cells were firstly incubated with 3-fold serious diluted humanized antibodies starting at 15 μg/ml at 4° C. for 40 mins. After washed by PBS, the Alexa Fluor® 647 AffiniPure Goat Anti-Human IgG (H+L) antibody was added to each well and incubated at 4° C. for 30 mins. The MFI of Alexa Fluor® 647 was evaluated by FACSCanto.

[3] = biological target: T1, human PD-L1-his tag protein; assay: SPR (Biacore T200), mAb captured on Protein A chip, PD-L1-his injected
Method: The binding of the humanized antibodies to recombinant PD-L1 protein (human PD-L1-his tag) was tested by Biacore using a capture method. […] A serial dilution of human PD-L1-his tag protein was injected over captured antibody for 2 mins at a flow rate of 30 μl/min. The antigen was allowed to dissociate for 1500 s. All the experiment were carried out on a Biacore T200.

[4] = biological target: T3, human PD-L1-Fc protein (human, UniProt Q9NZQ7 19-238); assay: ELISA, antibody titrated on coated human PD-L1-Fc, OD 450nm; upper right panel
T3 construct: coating antigen of the ELISAs; also called rhPD-L1-Fc; not shown: Fc
T3 sequence (Q9NZQ7 19-238 limits assumed): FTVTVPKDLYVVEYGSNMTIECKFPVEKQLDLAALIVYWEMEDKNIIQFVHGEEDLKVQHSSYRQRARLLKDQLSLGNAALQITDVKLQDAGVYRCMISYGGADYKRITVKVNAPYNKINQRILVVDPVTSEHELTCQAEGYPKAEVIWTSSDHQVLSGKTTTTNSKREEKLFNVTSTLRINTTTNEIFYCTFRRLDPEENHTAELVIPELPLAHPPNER

[5] = biological target: T3, human PD-L1-Fc protein; assay: receptor blocking ELISA: coated human PD-L1-Fc, blocked ligand biotin-labeled human PD-1-Fc (Bio-PD1), OD 450nm; lower right panel
Method: (§2) Briefly, microtiter plates were coated with human PD-L1-Fc protein at 0.5 μg/ml in PBS, 100 μl/well at 4° C. overnight, then blocked with 150 μl/well of 1% BSA at 37° C. for 2 hours. […] The plates were washed with PBS/Tween and then incubated with Streptavidin-HRP for 10 mins at 37° C. After washing, the plates were developed with TMB substrate and analyzed by spectrophotometer at OD 450 nm.

[6] = biological target: T3, human PD-L1-Fc protein; assay: receptor blocking ELISA: coated human PD-L1-Fc, blocked ligand biotin-labeled human CD80-Fc (Bio-CD80), OD 450nm; lower right panel
Method: as §2

[7] = biological target: rat PD-L1 protein (rat, UniProt D4AE25 19-239); assay: ELISA, coated rat PD-L1
Sequence of rat PD-L1 protein (D4AE25 entry or part of it limits assumed): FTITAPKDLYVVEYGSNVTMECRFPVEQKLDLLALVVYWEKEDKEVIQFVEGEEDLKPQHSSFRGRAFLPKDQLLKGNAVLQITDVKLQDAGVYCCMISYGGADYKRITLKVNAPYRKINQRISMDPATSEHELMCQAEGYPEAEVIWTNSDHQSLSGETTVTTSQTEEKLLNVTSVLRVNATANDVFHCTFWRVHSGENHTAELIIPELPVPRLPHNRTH
Method: (§3) ELISA testing was carried out to evaluate the binding of chimeric antibodies to human, mouse, rat, and cynomolgus PD-L1, respectively.
(§4) Briefly, microtiter plates were coated with human, mouse, rat and cynomolgus PD-L1 proteins at 0.5 μg/ml in PBS, 100 μl/well at 4° C. overnight, then blocked with 150 μl/well of 1% BSA. Three-fold dilutions of chimeric antibodies starting from 10 μg/ml were added to each well and incubated for 1 hour at 37° C. The plates were washed with PBS/Tween and then incubate with mouse-anti-human IgG Fab antibody conjugated with Horse Radish Peroxidase (HRP) for 30 mins at 37° C. After washing, the plates were developed with TMB substrate and analyzed by spectrophotometer at OD 450 nm.

[8] = biological target: mouse PD-L1 protein (mouse, UniProt Q9EP73 19-239); assay: ELISA, coated mouse PD-L1
Sequence of mouse PD-L1 protein (Q9EP73 19-239 limits assumed): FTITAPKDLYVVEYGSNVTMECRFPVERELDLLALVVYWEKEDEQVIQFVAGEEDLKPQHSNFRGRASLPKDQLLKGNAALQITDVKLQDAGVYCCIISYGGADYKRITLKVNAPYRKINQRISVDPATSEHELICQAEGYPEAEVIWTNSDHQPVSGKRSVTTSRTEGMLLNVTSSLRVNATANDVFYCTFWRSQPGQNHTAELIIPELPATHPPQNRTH
Method: as §3, §4

[9] = biological target: T2, human PD-L1 over-expressed on CHOK1 …; assay: flow cytometry on PDL1-CHOK1 cells
Method: After washing by PBS, Alexa Fluor® 647 AffiniPure Goat Anti-Human IgG (H+L) was added to each well and incubated at 4° C. for 30 mins. Samples were washed twice with FACS buffer. The mean florescence intensity (MFI) of Alexa Fluor® 647 was evaluated by FACSCanto.

[10] = biological target: cynomolgus PD-L1 protein (cynomolgus, UniProt G7PSE7 19-238); assay: ELISA, coated cynomolgus PD-L1
Sequence of cynomolgus PD-L1 protein (G7PSE7 entry or part of it): as the sequence (Q9NZQ7 19-238 limits assumed) above, with A33T, A34S, S62N, R68Q, Q82R, F173L, T185A, T192I, H215L counted along it
Method: as §3, §4

[11] = biological target: T3, human PD-L1-Fc protein; assay: ELISA, coated human PD-L1 (PD-L1-Fc per paragraph 110)
Method: as §2, with “1% BSA.” for “1% BSA at 37° C. for 2 hours.”, “with Mouse-anti-human IgG Fab antibody conjugated with Horse Radish Peroxidase (HRP)” for “with Streptavidin-HRP”, “for 30” for “for 10”
as §4

[12] = biological target: T1, human PD-L1-his tag protein; assay: SPR (Biacore T200), mAb captured on Protein A chip, PD-L1-his injected; remark: listed apart in the source
Method: A serial dilution of human PD-L1-his tag protein was injected over captured antibody for 2 mins at a flow rate of 30 μl/min. The antigen was allowed to dissociate for 480-1500 s. All the experiment were carried out on a Biacore T200. Data analysis was carried out using Biacore T200 evaluation software.

[13] = biological target: T3, human PD-L1-Fc protein; assay: competition ELISA, coated human PD-L1-Fc, biotin-labeled human PD-1-Fc as competitor
Method: as §2, with “BSA.” for “BSA at 37° C. for 2 hours.”

[14] = biological target: T2, human PD-L1 over-expressed on CHOK1 …; assay: flow cytometry (MFI) on PDL1-CHOK1 cells; lower right panel (with the Hu89C10H8 antibodies)
Method: as §1

[15] = biological target: T3, human PD-L1-Fc protein; assay: ELISA, antibody titrated on coated human PD-L1-Fc, OD 450nm; upper left panel (with Hu89C10H8-1 to -6)
Method: as §4, with “To evaluate antigen binding activity, the humanized antibodies were subjected to ELISA test. Briefly,” for “Briefly,”, “with human PD-L1-Fc protein” for “with human, mouse, rat and cynomolgus PD-L1 proteins”, “with 200” for “with 150”, “of humanized” for “of chimeric”, “then incubated” for “then incubate”, “for 1 hour” for “for 30 mins”

[16] = biological target: T3, human PD-L1-Fc protein; assay: ELISA, antibody titrated on coated human PD-L1-Fc, OD 450nm; lower left panel (with Hu89C10H8-13 to -16)
Method: as §4, with “To evaluate antigen binding activity, the humanized antibodies were subjected to ELISA test. Briefly,” for “Briefly,”, “with human PD-L1-Fc protein” for “with human, mouse, rat and cynomolgus PD-L1 proteins”, “with 200” for “with 150”, “of humanized” for “of chimeric”, “then incubated” for “then incubate”, “for 1 hour” for “for 30 mins”

[17] = biological target: T3, human PD-L1-Fc protein; assay: ELISA, antibody titrated on coated human PD-L1-Fc, OD 450nm; upper right panel (with Hu89C10H8-7 to -12)
Method: as §4, with “To evaluate antigen binding activity, the humanized antibodies were subjected to ELISA test. Briefly,” for “Briefly,”, “with human PD-L1-Fc protein” for “with human, mouse, rat and cynomolgus PD-L1 proteins”, “with 200” for “with 150”, “of humanized” for “of chimeric”, “then incubated” for “then incubate”, “for 1 hour” for “for 30 mins”

[18] = biological target: T3, human PD-L1-Fc protein; assay: receptor blocking ELISA: coated human PD-L1-Fc, blocked ligand biotin-labeled human PD-1-Fc (Bio-PD1), OD 450nm; upper left panel (with Hu89C10H8-4)
Method: as §2

[19] = biological target: T3, human PD-L1-Fc protein; assay: receptor blocking ELISA: coated human PD-L1-Fc, blocked ligand biotin-labeled human PD-1-Fc (Bio-PD1), OD 450nm; lower left panel (with Hu89C10H8-11)
Method: as §2

[20] = biological target: T3, human PD-L1-Fc protein; assay: receptor blocking ELISA: coated human PD-L1-Fc, blocked ligand biotin-labeled human PD-1-Fc (Bio-PD1), OD 450nm; upper right panel (with Hu89C10H8-7)
Method: as §2

[21] = biological target: T3, human PD-L1-Fc protein; assay: receptor blocking ELISA: coated human PD-L1-Fc, blocked ligand biotin-labeled human CD80-Fc (Bio-CD80), OD 450nm; upper left panel (with Hu89C10H8-4)
Method: as §2

[22] = biological target: T3, human PD-L1-Fc protein; assay: receptor blocking ELISA: coated human PD-L1-Fc, blocked ligand biotin-labeled human CD80-Fc (Bio-CD80), OD 450nm; lower left panel (with Hu89C10H8-11)
Method: as §2

[23] = biological target: T3, human PD-L1-Fc protein; assay: receptor blocking ELISA: coated human PD-L1-Fc, blocked ligand biotin-labeled human CD80-Fc (Bio-CD80), OD 450nm; upper right panel (with Hu89C10H8-7)
Method: as §2

[24] = biological target: T3, human PD-L1-Fc protein; assay: receptor blocking ELISA: coated human PD-L1-Fc, blocked ligand biotin-labeled human CD80-Fc (Bio-CD80), OD 450nm; lower right panel (with Hu89C10H8-12)
Method: as §2

T1 sequence (Q9NZQ7 19-238 limits assumed): as the sequence (Q9NZQ7 19-238 limits assumed) above

Kd [1]: 0.0968 nM | koff [1]: 7.04e-05 s⁻¹ | kon [1]: 727000 M⁻¹ s⁻¹ | EC50 [2]: 0.131 nM | Kd [3]: 0.0952 nM | koff [3]: 5.59e-05 s⁻¹ | kon [3]: 587000 M⁻¹ s⁻¹ | EC50 [4]: 0.00703 µg/mL | IC50 [5]: 0.0891 µg/mL | IC50 [6]: 0.284 µg/mL
B1: Hu89C10H8-12 (antibody, V domains shown)
VH: EVQLVESGGGLVKPGGSLRLSCAASGFTFSNYWMTWIRQAPGKGLEWVASITNTGSSTFYPDSVKGRFTISRDNAKSSLYLQMNSLRAEDTAVYYCTRDTTIAPFDYWGQGTMVTVSS
VL: DIQMTQSPSSLSASVGDRVTITCKASQNLNEYLNWYQQKPGKAPKRLIYKTNTLQAGIPSRFSGSGSGIDYTLTISSLQPEDFATYYCSQYNSGNTFGQGTKLEIK
notes: humanized

EC50 [9]: 0.17 nM | EC50 [10]: 0.00677 µg/mL | EC50 [11]: 0.00811 µg/mL | Kd [12]: 0.0415 nM | koff [12]: 6.64e-05 s⁻¹ | kon [12]: 1.6e+06 M⁻¹ s⁻¹ | IC50 [13]: 0.13 µg/mL | EC50 [14]: 0.118 nM | EC50 [15]: 0.012 µg/mL | EC50 [16]: 0.0126 µg/mL | EC50 [17]: 0.0157 µg/mL | IC50 [18]: 0.12 µg/mL | IC50 [19]: 0.133 µg/mL | IC50 [20]: 0.126 µg/mL | IC50 [21]: 0.432 µg/mL | IC50 [22]: 0.434 µg/mL | IC50 [23]: 0.438 µg/mL | IC50 [24]: 0.382 µg/mL
B2: 89C10H8 chimeric mAb (antibody, V domains shown)
VH: EVQLVESGGGLVQPGRSLTLSCVASGFTFSNYWMTWIRQAPGKGLEWVASITNTGSSTFYPDSVKGRFTISRDNTRSTLFLQINSLRSEDTATYYCTRDTTIAPFDYWGQGVMVTVSS
VL: B1 VL with S10F, P40L, K42E, F83V, Y87F, Q99A, I105L
notes: chimeric mAb of the hybridoma clone; also called 89C10H8-chimera
binding result [7]: no binding (tested: dilutions starting from 10 µg/ml) | binding result [8]: no binding (tested: dilutions starting from 10 µg/ml)
